For assay [1], the target named is T1, recombinant HIV-1 reverse transcriptase protein (HIV-1, UniProt P03367 600-858).
T1 construct: also called rHIV-1; HIV-1 RT

Assay [2] has as its target T1, recombinant HIV-1 reverse transcriptase …. The source holds these as a separate data set.
For assay [3] the target is unchanged. The source holds these as a separate data set.
Assay [4] has the same target. Briefly: ELISA, plate coated with HIV-1 RT, sdAb at 1 µg/mL, checkerboard of coating, 2° antibody and HRP.
Assay [5] has the same target. The source holds these as a separate data set.
For assay [6] the target is unchanged. This is another data set of the same source.
Assay [7] shares this target. The assay is described as follows: SPR (Biacore 3000), sdAb immobilized (1200 RU), full kinetics, analyte 0-200 nM.
Assay [8] has the same target. This is another data set of the same source.
The target is the same in assay [9]. The assay is described as follows: SPR (Biacore 3000), sdAb immobilized, analyte 100 nM.

Read-outs that look alike come from different tables or passages of the source.

B1: HIV1-9 anti-HIV-1 RT sdAb (VHH)
VHH: EVQLVESGGGSVQAGGSLRLSCAASVYSYNTNCMGWFRQAPGKEREGVAVIYAAGGLTYYADSVKGRFTISQENGKNTVYLTMNRLKPEDTAMYYCAAKRWCSSWNRGEEYNYWGQGTQVTVSS
notes: also called HIV1-9 VHH; HIV1-9 anti-RT sdAb
Consider B1, for which the EC50 in [1] worked out at 0.0161 µg/mL; in assay [2] it was 0.019 µg/mL; in assay [3] it was 0.0191 µg/mL; in [5], 0.0133 µg/mL; in [6], 0.015 µg/mL; in assay [8] it was 0.0227 µg/mL. The signal-to-noise ratio in assay [4] was greater than 20. For the same molecule, the dissociation constant (Kd) in assay [7] came to 3.85 nM; in [9] it was 4.25 nM. The off-rate constant (koff) in assay [7] is 0.000731 s⁻¹; in assay [9], 0.000379 s⁻¹. The on-rate (kon) in [7] is 190000 M⁻¹ s⁻¹; in assay [9], 89100 M⁻¹ s⁻¹.

The values above are taken from US20170121395A1 (SINGH BIOTECHNOLOGY, published 2017).
